Reference: patent US20260242478A1 (published 2026)
Where no end group is shown, it is not given here.

What was measured:
006 PSMA Fab [1] = molecular target: T1, 006 PSMA Fab; assay: phage binding ELISA; biotinylated PSMA Fab on neutravidin plate pre-incubated with PSMA antigen as competitor, clonal phage supernatant, anti-M13 HRP detection
T1 construct: also called Anti-PSMA Fab
Experimental: (§1) Clonal phage were harvested as crude supernatants and screened via standard ELISAs. […] Prior to the addition of clonal phage. wells were incubated with blocking buffer and PSMA antigen or blocking buffer alone. Without washing or aspirating, clonal phage supernatants were then added to the wells and incubated for a short time. Wells were then washed followed by detection of bound phage using a horse radish conjugated anti-M13 antibody.

006 PSMA Fab [2] = molecular target: T1, 006 PSMA Fab; assay: phage binding ELISA; biotinylated PSMA Fab on neutravidin plate, clonal phage supernatant, anti-M13 HRP detection; blocking buffer alone;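 note: before phage were added, wells were preincubated with blocking buffer either containing PSMA antigen or without it, and phage were then added with no wash in between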
Experimental: as §1

PSMA Fab (006 PSMA Fab) [3] = molecular target: T2, PSMA Fab (006 PSMA Fab); assay: clonal phage ELISA; biotinylated PSMA Fab on neutravidin plate, blocking buffer alone, anti-M13-HRP detection;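 note: crude clonal phage supernatants added without washing to wells preincubated with PSMA antigen or with blocking buffer alone, briefly incubated, then washed before bound phage detection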
T2 construct: also called Anti-PSMA Fab; anti-PSMA Fab
Experimental: as §1

PSMA Fab (006 PSMA Fab) [4] = molecular target: T2, PSMA Fab (006 PSMA Fab); assay: clonal phage ELISA; biotinylated PSMA Fab on neutravidin plate, wells pre-incubated with PSMA antigen (competitor), anti-M13-HRP detection
Experimental: as §1

[5] = molecular target: PSMA Fab (anti-PSMA Fab; 006 PSMA Fab); assay: phage binding ELISA on captured PSMA Fab; wells first incubated with PSMA antigen as competitor; anti-M13 HRP detection
Experimental: as §1

[6] = molecular target: PSMA Fab (anti-PSMA Fab; 006 PSMA Fab); assay: phage binding ELISA; clonal phage supernatant on biotinylated PSMA Fab captured on neutravidin plate; anti-M13 HRP detection
Experimental: as §1

## DYKWCTPPWMCYSA [Phage-2706]
006 PSMA Fab [1]
  Phage binding ELISA signal, Anti-PSMA Fab with PSMA antigen: 0.0621
006 PSMA Fab [2]
  Phage binding ELISA signal, Anti-PSMA Fab: 0.804

## QVPWCTPAWMCERA [Phage-2702]
006 PSMA Fab [1]
  Phage binding ELISA signal, Anti-PSMA Fab with PSMA antigen: 0.126
006 PSMA Fab [2]
  Phage binding ELISA signal, Anti-PSMA Fab: 0.814

B1: Phage-2716 (peptide)
peptide: VANWCTPKWMCEHV
modifications: cysteine pairing not given here; also: displayed on bacteriophage as fusion to pIII, linker not given here
PSMA Fab (006 PSMA Fab) [3]
  Phage binding ELISA signal, Anti-PSMA Fab: 0.777
PSMA Fab (006 PSMA Fab) [4]
  Phage binding ELISA signal, Anti-PSMA Fab in presence of PSMA antigen: 0.0631

## WQKWCTPMWMCEAT [Phage-2727 (Peptide-180 library clone)]
[5]
  Phage binding ELISA signal, Anti-PSMA Fab with PSMA antigen: 0.0785
[6]
  Phage binding ELISA signal, Anti-PSMA Fab: 0.744

B2: Phage-2711 (peptide)
peptide: NVSMCIPNWMCVGL
modifications: cysteine pairing not given here; also: displayed on bacteriophage as fusion to pIII, linker not given here
PSMA Fab (006 PSMA Fab) [3]
  Phage binding ELISA signal, Anti-PSMA Fab: 0.791
PSMA Fab (006 PSMA Fab) [4]
  Phage binding ELISA signal, Anti-PSMA Fab in presence of PSMA antigen: 0.0891

## DYKWCTPMWMCEVV [Phage-2723]
PSMA Fab (006 PSMA Fab) [3]
  Phage binding ELISA signal, Anti-PSMA Fab: 0.753
PSMA Fab (006 PSMA Fab) [4]
  Phage binding ELISA signal, Anti-PSMA Fab in presence of PSMA antigen: 0.0761

## PDNWCIPAWMCERF [Phage-2709]
006 PSMA Fab [1]
  Phage binding ELISA signal, Anti-PSMA Fab with PSMA antigen: 0.0679
006 PSMA Fab [2]
  Phage binding ELISA signal, Anti-PSMA Fab: 0.793

## MDRWCTPAWMCEVH [Phage-2708]
006 PSMA Fab [1]
  Phage binding ELISA signal, Anti-PSMA Fab with PSMA antigen: 0.0734
006 PSMA Fab [2]
  Phage binding ELISA signal, Anti-PSMA Fab: 0.794

B3: Phage-2714 (peptide)
peptide: HEKWCVPSWMCDDW
modifications: cysteine pairing not given here; also: displayed on bacteriophage as fusion to pIII, linker not given here
PSMA Fab (006 PSMA Fab) [3]
  Phage binding ELISA signal, Anti-PSMA Fab: 0.784
PSMA Fab (006 PSMA Fab) [4]
  Phage binding ELISA signal, Anti-PSMA Fab in presence of PSMA antigen: 0.0669

## EQMWCTPAWMCTGF [Phage-2705]
006 PSMA Fab [1]
  Phage binding ELISA signal, Anti-PSMA Fab with PSMA antigen: 0.0782
006 PSMA Fab [2]
  Phage binding ELISA signal, Anti-PSMA Fab: 0.81

B4: Phage-2718 (peptide)
peptide: TQKWCIPAWMCAER
modifications: cysteine pairing not given here; also: displayed on bacteriophage as fusion to pIII, linker not given here
PSMA Fab (006 PSMA Fab) [3]
  Phage binding ELISA signal, Anti-PSMA Fab: 0.774
PSMA Fab (006 PSMA Fab) [4]
  Phage binding ELISA signal, Anti-PSMA Fab in presence of PSMA antigen: 0.0702

## EWKWCTPPWMCTTN [Phage-2724]
PSMA Fab (006 PSMA Fab) [3]
  Phage binding ELISA signal, Anti-PSMA Fab: 0.752
PSMA Fab (006 PSMA Fab) [4]
  Phage binding ELISA signal, Anti-PSMA Fab in presence of PSMA antigen: 0.0835

B5: Phage-2713 (peptide)
peptide: NTHWCTPSWMCSAW
modifications: cysteine pairing not given here; also: displayed on bacteriophage as fusion to pIII, linker not given here
PSMA Fab (006 PSMA Fab) [3]
  Phage binding ELISA signal, Anti-PSMA Fab: 0.789
PSMA Fab (006 PSMA Fab) [4]
  Phage binding ELISA signal, Anti-PSMA Fab in presence of PSMA antigen: 0.0816

B6: Phage-2715 (peptide)
peptide: VYKWCTPSWMCADP
modifications: cysteine pairing not given here; also: displayed on bacteriophage as fusion to pIII, linker not given here
PSMA Fab (006 PSMA Fab) [3]
  Phage binding ELISA signal, Anti-PSMA Fab: 0.779
PSMA Fab (006 PSMA Fab) [4]
  Phage binding ELISA signal, Anti-PSMA Fab in presence of PSMA antigen: 0.0676

## EMKWCKPEWMCPWM [Phage-2730 (Peptide-180 library clone)]
[5]
  Phage binding ELISA signal, Anti-PSMA Fab with PSMA antigen: 0.0688
[6]
  Phage binding ELISA signal, Anti-PSMA Fab: 0.733

## WEKWCTPPWMCHDM [Phage-2732 (Peptide-180 library clone)]
[5]
  Phage binding ELISA signal, Anti-PSMA Fab with PSMA antigen: 0.0669
[6]
  Phage binding ELISA signal, Anti-PSMA Fab: 0.733

## MEKMCTPQWMCDMW [Phage-2725 (Peptide-180 library clone)]
[5]
  Phage binding ELISA signal, Anti-PSMA Fab with PSMA antigen: 0.0732
[6]
  Phage binding ELISA signal, Anti-PSMA Fab: 0.749

## VNPSCTPSWMCLGL [Phage-2728 (Peptide-180 library clone)]
[5]
  Phage binding ELISA signal, Anti-PSMA Fab with PSMA antigen: 0.0793
[6]
  Phage binding ELISA signal, Anti-PSMA Fab: 0.739

B7: Phage-2719 (peptide)
peptide: DMHWCTPQWMCAPL
modifications: cysteine pairing not given here; also: displayed on bacteriophage as fusion to pIII, linker not given here
PSMA Fab (006 PSMA Fab) [3]
  Phage binding ELISA signal, Anti-PSMA Fab: 0.771
PSMA Fab (006 PSMA Fab) [4]
  Phage binding ELISA signal, Anti-PSMA Fab in presence of PSMA antigen: 0.0856

## DQKWCIPLWMCETR [Phage-2722]
PSMA Fab (006 PSMA Fab) [3]
  Phage binding ELISA signal, Anti-PSMA Fab: 0.762
PSMA Fab (006 PSMA Fab) [4]
  Phage binding ELISA signal, Anti-PSMA Fab in presence of PSMA antigen: 0.0727

## VSNWCKPAWMCGTT [Phage-2731 (Peptide-180 library clone)]
[5]
  Phage binding ELISA signal, Anti-PSMA Fab with PSMA antigen: 0.079
[6]
  Phage binding ELISA signal, Anti-PSMA Fab: 0.733

B8: Phage-2720 (peptide)
peptide: DWKWCTPSWMCAQK
modifications: cysteine pairing not given here; also: displayed on bacteriophage as fusion to pIII, linker not given here
PSMA Fab (006 PSMA Fab) [3]
  Phage binding ELISA signal, Anti-PSMA Fab: 0.769
PSMA Fab (006 PSMA Fab) [4]
  Phage binding ELISA signal, Anti-PSMA Fab in presence of PSMA antigen: 0.0639

B9: Phage-2717 (peptide)
peptide: EYTWCKPAWMCDGV
modifications: cysteine pairing not given here; also: displayed on bacteriophage as fusion to pIII, linker not given here
PSMA Fab (006 PSMA Fab) [3]
  Phage binding ELISA signal, Anti-PSMA Fab: 0.774
PSMA Fab (006 PSMA Fab) [4]
  Phage binding ELISA signal, Anti-PSMA Fab in presence of PSMA antigen: 0.0742

## INKWCTPAWMCDLS [Phage-2726 (Peptide-180 library clone)]
[5]
  Phage binding ELISA signal, Anti-PSMA Fab with PSMA antigen: 0.0937
[6]
  Phage binding ELISA signal, Anti-PSMA Fab: 0.747

## DIKWCTPSWMCPAK [Phage-2733 (Peptide-180 library clone)]
[5]
  Phage binding ELISA signal, Anti-PSMA Fab with PSMA antigen: 0.0862
[6]
  Phage binding ELISA signal, Anti-PSMA Fab: 0.729

## LYNRCTPAWMCTGF [Phage-2729 (Peptide-180 library clone)]
[5]
  Phage binding ELISA signal, Anti-PSMA Fab with PSMA antigen: 0.0657
[6]
  Phage binding ELISA signal, Anti-PSMA Fab: 0.738

B10: Phage-2707 (peptide)
peptide: DHKWCTPPWMCAAD
modifications: cysteine pairing not given here; also: displayed on bacteriophage as fusion to pIII
006 PSMA Fab [1]
  Phage binding ELISA signal, Anti-PSMA Fab with PSMA antigen: 0.0877
006 PSMA Fab [2]
  Phage binding ELISA signal, Anti-PSMA Fab: 0.797

B11: Phage-2704 (peptide)
peptide: VGNWCIPLWMCAAE
modifications: cysteine pairing not given here; also: displayed on bacteriophage as fusion to pIII
006 PSMA Fab [1]
  Phage binding ELISA signal, Anti-PSMA Fab with PSMA antigen: 0.0867
006 PSMA Fab [2]
  Phage binding ELISA signal, Anti-PSMA Fab: 0.81

B12: Phage-2710 (peptide)
peptide: SVKWCTPPWMCTGL
modifications: cysteine pairing not given here; also: displayed on bacteriophage as fusion to pIII, linker not given here
PSMA Fab (006 PSMA Fab) [3]
  Phage binding ELISA signal, Anti-PSMA Fab: 0.792
PSMA Fab (006 PSMA Fab) [4]
  Phage binding ELISA signal, Anti-PSMA Fab in presence of PSMA antigen: 0.0767

B13: Phage-2703 (peptide)
peptide: TIKWCTPSWMCAEI
modifications: cysteine pairing not given here; also: displayed on bacteriophage as fusion to pIII
006 PSMA Fab [1]
  Phage binding ELISA signal, Anti-PSMA Fab with PSMA antigen: 0.105
006 PSMA Fab [2]
  Phage binding ELISA signal, Anti-PSMA Fab: 0.811

## NVKWCVPHWMCEVS [Phage-2721]
PSMA Fab (006 PSMA Fab) [3]
  Phage binding ELISA signal, Anti-PSMA Fab: 0.765
PSMA Fab (006 PSMA Fab) [4]
  Phage binding ELISA signal, Anti-PSMA Fab in presence of PSMA antigen: 0.0649

B14: Phage-2712 (peptide)
peptide: WENWCRPSWMCEDT
modifications: cysteine pairing not given here; also: displayed on bacteriophage as fusion to pIII, linker not given here
PSMA Fab (006 PSMA Fab) [3]
  Phage binding ELISA signal, Anti-PSMA Fab: 0.79
PSMA Fab (006 PSMA Fab) [4]
  Phage binding ELISA signal, Anti-PSMA Fab in presence of PSMA antigen: 0.0568
